The text below walks through data of PMC7840130 (Science Advances, 2021).

Data set [1] concerns the target BcsQ (in the Bcs macrocomplex) (E. coli 1094) (UniProt P37655). The data set can be described thus: cryo-EM structure.
The next data set concerns the target BcsQ^His (E. coli 1094) (UniProt P37655). Description: crystal structure.
Data set [2] deals with the molecule itself. The data set can be described thus: cryo-EM structure.
The target of data set [3] is T1, BcsA^HA-FLAG (in the Bcs macrocomplex) (E. coli 1094, UniProt P37653 1-872).
T1 sequence (looked up): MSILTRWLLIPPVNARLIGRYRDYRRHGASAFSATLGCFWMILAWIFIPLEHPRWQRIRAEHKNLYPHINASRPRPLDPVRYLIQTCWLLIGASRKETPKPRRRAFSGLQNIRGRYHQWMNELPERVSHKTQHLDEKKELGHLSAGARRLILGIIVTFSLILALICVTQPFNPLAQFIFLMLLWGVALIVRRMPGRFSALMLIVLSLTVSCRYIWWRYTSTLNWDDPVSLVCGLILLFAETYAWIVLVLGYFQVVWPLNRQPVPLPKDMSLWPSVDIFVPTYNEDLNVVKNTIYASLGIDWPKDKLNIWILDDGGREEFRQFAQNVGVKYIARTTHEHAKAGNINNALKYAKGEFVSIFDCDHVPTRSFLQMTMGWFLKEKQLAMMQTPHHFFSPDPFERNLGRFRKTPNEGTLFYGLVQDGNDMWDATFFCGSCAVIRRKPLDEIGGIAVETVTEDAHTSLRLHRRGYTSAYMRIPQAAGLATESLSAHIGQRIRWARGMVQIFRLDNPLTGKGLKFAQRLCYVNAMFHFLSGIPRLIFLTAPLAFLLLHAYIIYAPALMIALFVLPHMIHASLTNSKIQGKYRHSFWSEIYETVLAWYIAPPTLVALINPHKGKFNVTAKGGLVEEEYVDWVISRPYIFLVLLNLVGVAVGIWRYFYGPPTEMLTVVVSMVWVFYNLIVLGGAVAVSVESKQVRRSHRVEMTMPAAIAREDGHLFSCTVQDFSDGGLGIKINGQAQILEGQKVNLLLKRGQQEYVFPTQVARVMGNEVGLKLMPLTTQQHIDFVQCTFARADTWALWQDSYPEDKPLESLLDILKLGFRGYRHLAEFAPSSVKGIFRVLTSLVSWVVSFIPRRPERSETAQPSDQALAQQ
Description: cryo-EM structure.

Data set [4] deals with the molecule itself. Description: cryo-EM structure. The source holds these as a separate data set.

Where two headings read alike, the source gives them in different places.

Regarding “BcsQ (in the Bcs macrocomplex) (from UniProt P37655 1-242) (natural protein)”, the stoichiometry N in data set [1] is 2.

In turn, “BcsQ^His (from UniProt P37655 1-242) (natural protein)” had a stoichiometry N in the data set with BcsQ^His (E. coli 1094) of 2.

B1: BcsB (in the Bcs macrocomplex) (natural protein, E. coli 1094, UniProt P37652 26-779, looked up)
chain: TPATQPLINAEPAVAAQTEQNPQVGQVMPGVQGADAPVVAQNGPSRDVKLTFAQIAPPPGSMVLRGINPNGSIEFGMRSDEVVTKAMLNLEYTPSPSLLPVQSQLKVYLNDELMGVLPVTKEQLGKKTLAQMPINPLFISDFNRVRLEFVGHYQDVCEKPASTTLWLDVGRSSGLDLTYQTLNVKNDLSHFPVPFFDPSDNRTNTLPMVFAGAPDVGLQQASAIVASWFGSRSGWRGQNFPVLYNQLPDRNAIVFATNDKRPDFLRDHPAVKAPVIEMINHPQNPYVKLLVVFGRDDKDLLQAAKGIAQGNILFRGESVVVNEVKPLLPRKPYDAPNWVRTDRPVTFGELKTYEEQLQSSGLEPAAINVSLNLPPDLYLMRSTGIDMDINYRYTMPPVKDSSRMDISLNNQFLQSFNLSSKQEANRLLLRIPVLQGLLDGKTDVSIPALKLGATNQLRFDFEYMNPMPGGSVDNCITFQPVQNHVVIGDDSTIDFSKYYHFIPMPDLRAFANAGFPFSRMADLSQTITVMPKAPNEAQMETLLNTVGFIGAQTGFPAINLTVTDDGSTIQGKDADIMIIGGIPDKLKDDKQIDLLVQATESWVKTPMRQTPFPGIVPDESDRAAETRSTLTSSGAMAAVIGFQSPYNDQRSVIALLADSPRGYEMLNDAVNDSGKRATMFGSVAVIRESGINSLRVGDVYYVGHLPWFERVWYALANHPILLAVLAAISVILLAWVLWRLLRIISRRRLNPDNE
Take B1: the “stoichiometry N” value in the data set “cryo-EM structure [2]” is at most 6. In addition, in data set [3], the binding result was “binds”.

B2: full-length E. coli BcsB^His (natural protein, E. coli 1094, UniProt P37652 26-779, looked up)
chain: TPATQPLINAEPAVAAQTEQNPQVGQVMPGVQGADAPVVAQNGPSRDVKLTFAQIAPPPGSMVLRGINPNGSIEFGMRSDEVVTKAMLNLEYTPSPSLLPVQSQLKVYLNDELMGVLPVTKEQLGKKTLAQMPINPLFISDFNRVRLEFVGHYQDVCEKPASTTLWLDVGRSSGLDLTYQTLNVKNDLSHFPVPFFDPSDNRTNTLPMVFAGAPDVGLQQASAIVASWFGSRSGWRGQNFPVLYNQLPDRNAIVFATNDKRPDFLRDHPAVKAPVIEMINHPQNPYVKLLVVFGRDDKDLLQAAKGIAQGNILFRGESVVVNEVKPLLPRKPYDAPNWVRTDRPVTFGELKTYEEQLQSSGLEPAAINVSLNLPPDLYLMRSTGIDMDINYRYTMPPVKDSSRMDISLNNQFLQSFNLSSKQEANRLLLRIPVLQGLLDGKTDVSIPALKLGATNQLRFDFEYMNPMPGGSVDNCITFQPVQNHVVIGDDSTIDFSKYYHFIPMPDLRAFANAGFPFSRMADLSQTITVMPKAPNEAQMETLLNTVGFIGAQTGFPAINLTVTDDGSTIQGKDADIMIIGGIPDKLKDDKQIDLLVQATESWVKTPMRQTPFPGIVPDESDRAAETRSTLTSSGAMAAVIGFQSPYNDQRSVIALLADSPRGYEMLNDAVNDSGKRATMFGSVAVIRESGINSLRVGDVYYVGHLPWFERVWYALANHPILLAVLAAISVILLAWVLWRLLRIISRRRLNPDNE
For B2, in the data set “cryo-EM structure [4]”, the “stoichiometry N” value is 8.

As usually defined, the stoichiometry N is the number of molecules, sites or subunits per partner or assembly.
